{
  "source": "paper doi:10.1101/2020.04.13.035477",
  "assay_in_all_cases": "SPR",
  "key": {"[1]": {"biological_target": "HpARI_CCP1/2 (truncation of HpARI lacking CCP3) (Heligmosomoides polygyrus)", "sequence (A0A3P7XL18 65-211)": "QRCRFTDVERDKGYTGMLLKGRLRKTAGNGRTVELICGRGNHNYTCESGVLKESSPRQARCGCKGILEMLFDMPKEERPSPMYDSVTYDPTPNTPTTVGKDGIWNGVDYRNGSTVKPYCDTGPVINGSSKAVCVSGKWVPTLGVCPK"}, "[2]": {"biological_target": "H. polygyrus Alarmin Release Inhibitor (HpARI), full-length (Heligmosomoides polygyrus)"}, "[3]": {"biological_target": "HpARI_CCP2/3 (truncation of HpARI lacking CCP1) (Heligmosomoides polygyrus)", "sequence (A0A3P7XL18 126-297)": "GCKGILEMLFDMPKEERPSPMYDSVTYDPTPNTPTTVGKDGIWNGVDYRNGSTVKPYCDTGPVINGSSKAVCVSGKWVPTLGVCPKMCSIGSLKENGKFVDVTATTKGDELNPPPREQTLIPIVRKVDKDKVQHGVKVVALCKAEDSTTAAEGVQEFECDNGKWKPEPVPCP"}},
  "data": [
    {"substance": "recombinant murine IL-33 (from UniProt Q8BVZ5 1-266) (ligand)", "values": [
      {"measurement": "Kd", "setting": "[1]", "result": 9.8, "unit": "nM"},
      {"measurement": "koff", "setting": "[1]", "result": 0.003, "unit": "s⁻¹"},
      {"measurement": "Kd", "setting": "[2]", "result": 1.1, "unit": "nM"},
      {"measurement": "koff", "setting": "[2]", "result": 0.00015, "unit": "s⁻¹"},
      {"measurement": "Kd", "setting": "[3]", "result": 1.4, "unit": "nM"}
    ]}
  ]
}
